Numbered stars: 1 amine (or outer) side, 2 acyl side, 3 side chain; on linkers, the order of the positions; unused ones are H or OH. Side chains are listed from the residue outwards. Ends that are not written are not given here. * marks the point of attachment. C20 diacid = O=C(O)CCCCCCCCCCCCCCCCCCC(=O)*; C18 diacid = O=C(O)CCCCCCCCCCCCCCCCC(=O)*; γGlu = O=C(O)[C@H](CCC(=O)[*:2])N[*:1]
T1: human amylin 3(a) receptor (human calcitonin receptor co-expressed with RAMP-3) (human, UniProt P30988 25-474; O60896 24-148, limits assumed)
T1 sequence (looked up) 1: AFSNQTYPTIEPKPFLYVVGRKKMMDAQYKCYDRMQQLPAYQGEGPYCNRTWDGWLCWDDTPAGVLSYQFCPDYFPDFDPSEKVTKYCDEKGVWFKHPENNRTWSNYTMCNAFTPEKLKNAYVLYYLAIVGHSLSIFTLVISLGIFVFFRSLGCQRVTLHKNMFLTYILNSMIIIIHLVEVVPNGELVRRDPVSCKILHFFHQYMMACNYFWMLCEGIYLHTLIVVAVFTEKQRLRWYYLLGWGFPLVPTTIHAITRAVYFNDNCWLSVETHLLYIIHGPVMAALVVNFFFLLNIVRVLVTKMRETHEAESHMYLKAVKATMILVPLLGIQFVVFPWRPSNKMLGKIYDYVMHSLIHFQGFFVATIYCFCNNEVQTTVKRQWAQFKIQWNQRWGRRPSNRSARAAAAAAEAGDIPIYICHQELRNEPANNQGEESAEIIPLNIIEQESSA
T1 sequence (looked up) 2: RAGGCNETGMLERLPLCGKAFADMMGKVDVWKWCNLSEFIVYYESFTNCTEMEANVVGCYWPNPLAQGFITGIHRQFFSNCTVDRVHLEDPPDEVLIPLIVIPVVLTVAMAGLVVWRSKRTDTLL

T2: human calcitonin receptor (human, UniProt P30988 25-474)
T2 sequence (looked up): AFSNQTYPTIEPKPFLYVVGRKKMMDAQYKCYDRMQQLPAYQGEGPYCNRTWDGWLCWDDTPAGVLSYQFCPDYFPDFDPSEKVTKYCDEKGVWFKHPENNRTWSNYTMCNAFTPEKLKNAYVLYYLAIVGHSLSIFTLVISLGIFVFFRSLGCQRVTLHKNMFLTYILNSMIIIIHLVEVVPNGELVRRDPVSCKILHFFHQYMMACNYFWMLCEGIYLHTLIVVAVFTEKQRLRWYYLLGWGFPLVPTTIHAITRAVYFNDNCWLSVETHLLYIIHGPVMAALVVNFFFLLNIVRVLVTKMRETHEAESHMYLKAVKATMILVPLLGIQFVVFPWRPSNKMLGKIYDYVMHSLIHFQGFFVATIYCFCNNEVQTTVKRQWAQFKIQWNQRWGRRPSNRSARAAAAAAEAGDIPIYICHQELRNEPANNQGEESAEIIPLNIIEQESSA


What was measured:
[1] = target: T1, human amylin 3(a) receptor (human …); assay: cell-based or functional assay
[2] = target: T2, human calcitonin receptor; assay: cell-based or functional assay

Binder | hAmylin-R funct. EC50 (pM) [1] | hCTR funct. EC50 (pM) [2]
{C18 diacid-γGlu}-ASELTTAVLGRLTAELHELETLPRTETGTGTP-NH2 (SMILES CC(C)C[C@H](NC(=O)[C@H](CCC(=O)O)NC(=O)[C@H](C)NC(=O)[C@@H](NC(=O)[C@H](CC(C)C)NC(=O)[C@H](CCCNC(=N)N)NC(=O)CNC(=O)[C@H](CC(C)C)NC(=O)[C@@H](NC(=O)[C@H](C)NC(=O)[C@@H](NC(=O)[C@@H](NC(=O)[C@H](CC(C)C)NC(=O)[C@H](CCC(=O)O)NC(=O)[C@H](CO)NC(=O)[C@H](C)NC(=O)CC[C@H](NC(=O)CCCCCCCCCCCCCCCCC(=O)O)C(=O)O)[C@@H](C)O)[C@@H](C)O)C(C)C)[C@@H](C)O)C(=O)N[C@@H](Cc1c[nH]cn1)C(=O)N[C@@H](CCC(=O)O)C(=O)N[C@@H](CC(C)C)C(=O)N[C@@H](CCC(=O)O)C(=O)N[C@H](C(=O)N[C@@H](CC(C)C)C(=O)N1CCC[C@H]1C(=O)N[C@@H](CCCNC(=N)N)C(=O)N[C@H](C(=O)N[C@@H](CCC(=O)O)C(=O)N[C@H](C(=O)NCC(=O)N[C@H](C(=O)NCC(=O)N[C@H](C(=O)N1CCC[C@H]1C(N)=O)[C@@H](C)O)[C@@H](C)O)[C@@H](C)O)[C@@H](C)O)[C@@H](C)O) [[N-terminal(C18 diacid-gGlu), des1, 6T, 9V, 14T, 21E, 30T, 31G, 32T]mimylin] | 235 pM | 45 pM
{C18 diacid-γGlu}-ASELTTAVLGRLEAELHELTTLPRTETGTGTP-NH2 [[N-terminal(C18 diacid-gGlu), des1, 6T, 9V, 14E, 21T, 30T, 31G, 32T]mimylin] | 386 pM | 66 pM
{C20 diacid-γGlu}-ASGLSTAALGRLSQELHELQTYPRTETGSQTY-NH2 (SMILES CC(C)C[C@H](NC(=O)CNC(=O)[C@H](CO)NC(=O)[C@H](C)NC(=O)CC[C@H](NC(=O)CCCCCCCCCCCCCCCCCCC(=O)O)C(=O)O)C(=O)N[C@@H](CO)C(=O)N[C@H](C(=O)N[C@@H](C)C(=O)N[C@@H](C)C(=O)N[C@@H](CC(C)C)C(=O)NCC(=O)N[C@@H](CCCNC(=N)N)C(=O)N[C@@H](CC(C)C)C(=O)N[C@@H](CO)C(=O)N[C@@H](CCC(N)=O)C(=O)N[C@@H](CCC(=O)O)C(=O)N[C@@H](CC(C)C)C(=O)N[C@@H](Cc1c[nH]cn1)C(=O)N[C@@H](CCC(=O)O)C(=O)N[C@@H](CC(C)C)C(=O)N[C@@H](CCC(N)=O)C(=O)N[C@H](C(=O)N[C@@H](Cc1ccc(O)cc1)C(=O)N1CCC[C@H]1C(=O)N[C@@H](CCCNC(=N)N)C(=O)N[C@H](C(=O)N[C@@H](CCC(=O)O)C(=O)N[C@H](C(=O)NCC(=O)N[C@@H](CO)C(=O)N[C@@H](CCC(N)=O)C(=O)N[C@H](C(=O)N[C@@H](Cc1ccc(O)cc1)C(N)=O)[C@@H](C)O)[C@@H](C)O)[C@@H](C)O)[C@@H](C)O)[C@@H](C)O) [[N-terminal(C20 diacid-gGlu), des1, 4G, 15Q, 21Q, 23Y, 30S, 31Q, 32T, 33Y]mimylin] | 37 pM | 25 pM
{C20 diacid}-ASGLSTAALGRLSQELHELQTYPRTETGSGTY-NH2 (SMILES CC(C)C[C@H](NC(=O)CNC(=O)[C@H](CO)NC(=O)[C@H](C)NC(=O)CCCCCCCCCCCCCCCCCCC(=O)O)C(=O)N[C@@H](CO)C(=O)N[C@H](C(=O)N[C@@H](C)C(=O)N[C@@H](C)C(=O)N[C@@H](CC(C)C)C(=O)NCC(=O)N[C@@H](CCCNC(=N)N)C(=O)N[C@@H](CC(C)C)C(=O)N[C@@H](CO)C(=O)N[C@@H](CCC(N)=O)C(=O)N[C@@H](CCC(=O)O)C(=O)N[C@@H](CC(C)C)C(=O)N[C@@H](Cc1c[nH]cn1)C(=O)N[C@@H](CCC(=O)O)C(=O)N[C@@H](CC(C)C)C(=O)N[C@@H](CCC(N)=O)C(=O)N[C@H](C(=O)N[C@@H](Cc1ccc(O)cc1)C(=O)N1CCC[C@H]1C(=O)N[C@@H](CCCNC(=N)N)C(=O)N[C@H](C(=O)N[C@@H](CCC(=O)O)C(=O)N[C@H](C(=O)NCC(=O)N[C@@H](CO)C(=O)NCC(=O)N[C@H](C(=O)N[C@@H](Cc1ccc(O)cc1)C(N)=O)[C@@H](C)O)[C@@H](C)O)[C@@H](C)O)[C@@H](C)O)[C@@H](C)O) [[N-terminal(C20 diacid), des1, 4G, 15Q, 21Q, 23Y, 30S, 31G, 32T, 33Y]mimylin] | 22 pM | 24 pM
{C20 diacid-γGlu}-ASGLSTAALGRLSEELHELQTYPRTETGSGTY-NH2 (SMILES CC(C)C[C@H](NC(=O)CNC(=O)[C@H](CO)NC(=O)[C@H](C)NC(=O)CC[C@H](NC(=O)CCCCCCCCCCCCCCCCCCC(=O)O)C(=O)O)C(=O)N[C@@H](CO)C(=O)N[C@H](C(=O)N[C@@H](C)C(=O)N[C@@H](C)C(=O)N[C@@H](CC(C)C)C(=O)NCC(=O)N[C@@H](CCCNC(=N)N)C(=O)N[C@@H](CC(C)C)C(=O)N[C@@H](CO)C(=O)N[C@@H](CCC(=O)O)C(=O)N[C@@H](CCC(=O)O)C(=O)N[C@@H](CC(C)C)C(=O)N[C@@H](Cc1c[nH]cn1)C(=O)N[C@@H](CCC(=O)O)C(=O)N[C@@H](CC(C)C)C(=O)N[C@@H](CCC(N)=O)C(=O)N[C@H](C(=O)N[C@@H](Cc1ccc(O)cc1)C(=O)N1CCC[C@H]1C(=O)N[C@@H](CCCNC(=N)N)C(=O)N[C@H](C(=O)N[C@@H](CCC(=O)O)C(=O)N[C@H](C(=O)NCC(=O)N[C@@H](CO)C(=O)NCC(=O)N[C@H](C(=O)N[C@@H](Cc1ccc(O)cc1)C(N)=O)[C@@H](C)O)[C@@H](C)O)[C@@H](C)O)[C@@H](C)O)[C@@H](C)O) [[N-terminal(C20 diacid-gGlu), des1, 4G, 15E, 21Q, 23Y, 30S, 31G, 32T, 33Y]mimylin] | 36 pM | 21 pM

Second part, the binder after the results:

hAmylin-R funct. EC50 (pM) [1] | hCTR funct. EC50 (pM) [2] | Binder
76 pM | 60 pM | {C20 diacid-γGlu}-ASELSTAVLGRLSQELHELQTYPRTETGSGTY-NH2 (SMILES CC(C)C[C@H](NC(=O)[C@H](CCCNC(=N)N)NC(=O)CNC(=O)[C@H](CC(C)C)NC(=O)[C@@H](NC(=O)[C@H](C)NC(=O)[C@@H](NC(=O)[C@H](CO)NC(=O)[C@H](CC(C)C)NC(=O)[C@H](CCC(=O)O)NC(=O)[C@H](CO)NC(=O)[C@H](C)NC(=O)CC[C@H](NC(=O)CCCCCCCCCCCCCCCCCCC(=O)O)C(=O)O)[C@@H](C)O)C(C)C)C(=O)N[C@@H](CO)C(=O)N[C@@H](CCC(N)=O)C(=O)N[C@@H](CCC(=O)O)C(=O)N[C@@H](CC(C)C)C(=O)N[C@@H](Cc1c[nH]cn1)C(=O)N[C@@H](CCC(=O)O)C(=O)N[C@@H](CC(C)C)C(=O)N[C@@H](CCC(N)=O)C(=O)N[C@H](C(=O)N[C@@H](Cc1ccc(O)cc1)C(=O)N1CCC[C@H]1C(=O)N[C@@H](CCCNC(=N)N)C(=O)N[C@H](C(=O)N[C@@H](CCC(=O)O)C(=O)N[C@H](C(=O)NCC(=O)N[C@@H](CO)C(=O)NCC(=O)N[C@H](C(=O)N[C@@H](Cc1ccc(O)cc1)C(N)=O)[C@@H](C)O)[C@@H](C)O)[C@@H](C)O)[C@@H](C)O) [[N-terminal(C20 diacid-gGlu), des1, 9V, 15Q, 21Q, 23Y, 30S, 31G, 32T, 33Y]mimylin]
68 pM | 36 pM | ASGLSTAALGRLSQELHELQTYPRTETGSK([γGlu-C20 diacid])TY-NH2 (N-terminus assumed; SMILES CC(C)C[C@H](NC(=O)CNC(=O)[C@H](CO)NC(=O)[C@H](C)N)C(=O)N[C@@H](CO)C(=O)N[C@H](C(=O)N[C@@H](C)C(=O)N[C@@H](C)C(=O)N[C@@H](CC(C)C)C(=O)NCC(=O)N[C@@H](CCCNC(=N)N)C(=O)N[C@@H](CC(C)C)C(=O)N[C@@H](CO)C(=O)N[C@@H](CCC(N)=O)C(=O)N[C@@H](CCC(=O)O)C(=O)N[C@@H](CC(C)C)C(=O)N[C@@H](Cc1c[nH]cn1)C(=O)N[C@@H](CCC(=O)O)C(=O)N[C@@H](CC(C)C)C(=O)N[C@@H](CCC(N)=O)C(=O)N[C@H](C(=O)N[C@@H](Cc1ccc(O)cc1)C(=O)N1CCC[C@H]1C(=O)N[C@@H](CCCNC(=N)N)C(=O)N[C@H](C(=O)N[C@@H](CCC(=O)O)C(=O)N[C@H](C(=O)NCC(=O)N[C@@H](CO)C(=O)N[C@@H](CCCCNC(=O)CC[C@H](NC(=O)CCCCCCCCCCCCCCCCCCC(=O)O)C(=O)O)C(=O)N[C@H](C(=O)N[C@@H](Cc1ccc(O)cc1)C(N)=O)[C@@H](C)O)[C@@H](C)O)[C@@H](C)O)[C@@H](C)O)[C@@H](C)O) [[des1, 4G, 15Q, 21Q, 23Y, 30S, 31K(C20 diacid-gGlu), 32T, 33Y]mimylin]
54 pM | 18 pM | {C20 diacid-γGlu}-ASGLSTAALGRLSTELHELETYPRTETGSGTY-NH2 (SMILES CC(C)C[C@H](NC(=O)CNC(=O)[C@H](CO)NC(=O)[C@H](C)NC(=O)CC[C@H](NC(=O)CCCCCCCCCCCCCCCCCCC(=O)O)C(=O)O)C(=O)N[C@@H](CO)C(=O)N[C@H](C(=O)N[C@@H](C)C(=O)N[C@@H](C)C(=O)N[C@@H](CC(C)C)C(=O)NCC(=O)N[C@@H](CCCNC(=N)N)C(=O)N[C@@H](CC(C)C)C(=O)N[C@@H](CO)C(=O)N[C@H](C(=O)N[C@@H](CCC(=O)O)C(=O)N[C@@H](CC(C)C)C(=O)N[C@@H](Cc1c[nH]cn1)C(=O)N[C@@H](CCC(=O)O)C(=O)N[C@@H](CC(C)C)C(=O)N[C@@H](CCC(=O)O)C(=O)N[C@H](C(=O)N[C@@H](Cc1ccc(O)cc1)C(=O)N1CCC[C@H]1C(=O)N[C@@H](CCCNC(=N)N)C(=O)N[C@H](C(=O)N[C@@H](CCC(=O)O)C(=O)N[C@H](C(=O)NCC(=O)N[C@@H](CO)C(=O)NCC(=O)N[C@H](C(=O)N[C@@H](Cc1ccc(O)cc1)C(N)=O)[C@@H](C)O)[C@@H](C)O)[C@@H](C)O)[C@@H](C)O)[C@@H](C)O)[C@@H](C)O) [[N-terminal(C20 diacid-gGlu), des1, 4G, 15T, 21E, 23Y, 30S, 31G, 32T, 33Y]mimylin]
